The target of this experiment is RPL11 (UniProt P62913 2-177). Put plainly: co-IP with anti-FLAG, mass spectrometry; N-FLAG B3GNT2.

B1: N-terminal FLAG tagged B3GNT2 (enzyme, human, UniProt Q9NY97 1-397, looked up)
chain: MSVGRRRIKLLGILMMANVFIYFIMEVSKSSSQEKNGKGEVIIPKEKFWKISTPPEAYWNREQEKLNRQYNPILSMLTNQTGEAGRLSNISHLNYCEPDLRVTSVVTGFNNLPDRFKDFLLYLRCRNYSLLIDQPDKCAKKPFLLLAIKSLTPHFARRQAIRESWGQESNAGNQTVVRVFLLGQTPPEDNHPDLSDMLKFESEKHQDILMWNYRDTFFNLSLKEVLFLRWVSTSCPDTEFVFKGDDDVFVNTHHILNYLNSLSKTKAKDLFIGDVIHNAGPHRDKKLKYYIPEVVYSGLYPPYAGGGGFLYSGHLALRLYHITDQVHLYPIDDVYTGMCLQKLGLVPEKHKGFRTFDIEEKNKNNICSYVDLMLVHSRKPQEMIDIWSQLQSAHLKC
notes: FLAG-tagged ORF overexpressed in cells; bait of the anti-FLAG co-IP; also called N-FLAG B3GNT2; N-term FLAG; not shown: FLAG tag at the N-terminus
Turning to B1, the “co-IP mass spectrometry count” value stood at 5.

For the origin of these results see patent US20240261333A1 (published 2024).
